From publication PMC5307791, “Thermus thermophilus as source of thermozymes for biotechnological applications: homologous expression and biochemical characterization of an α-galactosidase” (Microbial Cell Factories, 2017) come the findings set out here.

The target of series [1] is α-galactosidase from Thermus thermophilus HB27 (TtGalA), N-terminally His-tagged, expressed in T. thermophilus HB27::nar (Thermus thermophilus HB27). The series is described as follows: SEC-MALS; size-exclusion chromatography (S200 16/60) with Mini DAWN Treos triple-angle light scattering and QELS; 500 µg of protein (1 mg/ml) loaded; 0.5 ml/min; buffer A (50 mM Tris-HCl pH 7.5, 500 mM NaCl).

Substrate in the series “purified protein”: O=[N+]([O-])c1ccc(O[C@H]2O[C@H](CO)[C@H](O)[C@H](O)[C@H]2O)cc1
Briefly: purified protein. The following applies: 90 °C, pH 6.0, 50 mM sodium phosphate.

In the case of “α-galactosidase from Thermus thermophilus HB27 (TtGalA), N-terminally His-tagged, expressed in T. thermophilus HB27::nar (enzyme)”, the stoichiometry N (as a rule, a count of units in the complex or per binding partner) in series [1] was 6.

B1: TtGalA (Thermus thermophilus HB27) (protein)
chain: MRLNLGGAEVFLRAEGLEEAPGGVRLWGREVRVFPPFPAKGFFRHGWQSWSLAAWVDPAQAPTPLLPEARRPQADDPFLLEAGAWWGSGVGALRGPDGRALLLGALDLGARVLGREDLLLGRYAGEGGAWFLAHGPEEEVFAAYAQLLPRRLSGRPPRVWCSWYSFYTRIGEDLLLRVLDEVAAFSFEVFQIDDGWQRALGDWEPNDRFPRGMAFLAERIRERGLRPGLWFAPFLVTADSPLFQMRPDWVLRDGEGRPVRAGFNWGRPLYALDAGNEEVVEWAADLVRKALAWGYDYLKLDFLYAAALPGAEGEARYRRAMARLREAAGEAYLLFCGAPVLASLGLADGLRVGPDVAPYWDNEERSFWLADPTGPGLRNALRSTLHRLWLMENVHVDPDVVYFRTRFNLLSPEEMRLQEALAHFTGFKATSDPPSWLLPEEKGRLEAFLAREVPVRRLGPYRFRVGEEEVDYAPLL
Turning to B1, in the series “purified protein”, the Km (commonly the substrate concentration at which the rate is half of its maximum) was found to be 690 ± 17 µM; the Vmax (in general, the top rate of the reaction or transport when substrate is in excess) turned out to be 338 µmol/min/mg; the kcat (in general, the maximal rate divided by the concentration of active sites) was found to be 710 s⁻¹.
